Data on five molecules can be found in patent US20070238862A1 (published 2007).

For the experiment, the target named is T1, human ChemerinR (human, UniProt Q99788 3-373).
T1 sequence: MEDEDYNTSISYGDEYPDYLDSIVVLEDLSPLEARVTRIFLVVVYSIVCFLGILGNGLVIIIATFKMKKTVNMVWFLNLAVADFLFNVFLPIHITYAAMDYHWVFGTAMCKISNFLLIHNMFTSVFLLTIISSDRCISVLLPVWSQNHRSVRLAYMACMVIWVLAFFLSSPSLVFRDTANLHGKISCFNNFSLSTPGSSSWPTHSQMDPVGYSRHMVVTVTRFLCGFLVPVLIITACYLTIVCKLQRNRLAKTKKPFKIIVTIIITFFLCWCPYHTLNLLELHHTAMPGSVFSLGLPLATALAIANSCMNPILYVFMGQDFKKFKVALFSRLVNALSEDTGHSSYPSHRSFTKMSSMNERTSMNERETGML
The experiment can be described thus: cell-based or functional assay.

No end group written: not given here.

B1: IFPGQFAFS (peptide)
peptide: IFPGQFAFS
For the molecule B1, the “EC50 (nM), Calcium flux-Aequoscreen assay on ChemerinR expressing cells” value turned out to be 25.8 nM.

B2: FLPGQFAFS (peptide)
peptide: FLPGQFAFS
Turning to B2, the “EC50 (nM), Calcium flux-Aequoscreen assay on ChemerinR expressing cells” value turned out to be 29.1 nM.

B3: YFPGQFAFD-CONH2 (peptide)
peptide: YFPGQFAFD-NH2
Regarding B3, the “EC50 (nM), Calcium flux-Aequoscreen assay on ChemerinR expressing cells” value amounted to 4.3 nM.

B4: YVPGQFAFS (peptide)
peptide: YVPGQFAFS
In the case of B4, the “EC50 (nM), Calcium flux-Aequoscreen assay on ChemerinR expressing cells” value worked out at 43.8 nM.

B5: LFPGQFAFS (peptide)
peptide: LFPGQFAFS
In the case of B5, the “EC50 (nM), Calcium flux-Aequoscreen assay on ChemerinR expressing cells” value turned out to be 66.3 nM.
